Assay type in all cases: cell-based, human
Experiment [1] concerns control iPSC-derived ECs co-cultured with control iPSC-derived pericytes/mesenchymal cells. The experiment is described as follows: 2D endothelial-pericyte co-culture sprouting assay, control ECs. The note with it: for formation of vascular/endothelial sprouts: TGFβ3 1 ng/ml, compared to control condition. As to the method:
(§1) The endothelial capillary-like network formation assay was carried out as previously described but with major modifications (Evensen et al., 2013). These included using both ECs and pericytes derived from human iPSC lines. This is described in more detail elsewhere (Orlova et al., manuscript in preparation). ECs were labelled with the general cytoplasmic labeling dye (PKH-26). For the sprouting assay, 12,000 ECs derived from both control and diseased lines were plated with 50,000 control iPSC-derived pericytes/well on 0.1% gelatin coated 96-well plates in EGM-2 (Lonza, CC-3162). Next day and on the day 4 of the assay, medium was replaced with new EGM-2 media containing tested compounds as indicated in the figure legends. Endothelial-pericyte co-culture was terminated on day 7 of the assay each well immunofluorescently stained for quantification, as follows: co-cultures were fixed with the 4% paraformaldehyde (PFA), permeabilized with the 0.1% TX-100 and blocked with the normal goat serum (Dako). Endothelial sprouts were visualized with the mouse anti-CD31 (Dako, 1:200). In some experiment with the mouse blocking antibodies, rabbit anti-CD31 (Scbt, 1:200) was used instead. Pericytes were visualized with antibodies against SM22 (Sigma, 1:200). The endothelial network was imaged with the BD Pathway 855 system using the 4× or 10× objective and 2×2 (or 3×3) Montage mode. Total area covered by the endothelial sprouts was quantified with the protocol developed within cell image analysis software CellProfiller (Broad Institute). High magnification images were acquired with the SP5 confocal microscope, using 10× and 40× objectives.
A two-dimensional co-culture system was first established in vitro consisting of control iPSC-derived ECs cultured with the control iPSC-derived mesenchymal cells (FIG. 10A). The protocol was optimized and adapted to the BD Pathway 855 imaging system, based on the protocol initially described for the co-culture of HUVECs and vascular SMCs (vSMCs) (Evensen et al., 2013). On day 7 of the co-culture, iPSC-derived EC had organized and formed spouts on the top mesenchymal cells, as evidenced by immunofluorescent staining with the EC-specific CD31 and SMC-specific SM22 markers (FIG. 10B).
(§2) Endothelial cell-pericyte co-culture was performed as described previously (Evensen et al., 2013) but using conditions optimized for iPSC-derived ECs and pericytes as described (Orlova et al., manuscript in preparation). In brief, 12,000 and 50,000 iPSC-derived ECs and pericytes were plated, respectively, in each well of a 96-well plate. Next day the co-cultures were refreshed with the specific treatment conditions indicated. The co-culture was fixed on day 7, and EC sprouts stained with anti-CD31 antibody (1:200, Dako) (as described in Orlova et al., manuscript in preparation). Pericytes were visualized with the anti-SM22 antibody (1:200, Abcam). The BD Pathway 855 system was used for automatic image acquisition, with the 4× objective and 2×2 (or in some cases 3×3) montage mode. CellProfiller (Broad Institute) custom pipeline was used for the image quantification.

The test system of experiment [2] is HHT1-iPSC-derived ECs co-cultured with control iPSC-derived pericytes. Put plainly: 2D endothelial-pericyte co-culture sprouting assay, HHT1 patient ECs. The conditions noted are these: day 7, HHT1-iPSC ECs; for formation of endothelial sprouts: TGFβ3 1 ng/ml; for formation of the sprouting network: BMP9 1 ng/ml. As to the method:
as §1
It was hypothesized that this system might be useful for distinguishing […] versus paracrine effects of endoglin deficiency in HHT1-iPSCs-derived ECs. Therefore, ECs from HHT-iPSC lines in the co-culture assay combined with the pericytes derived from the control iPSCs were examined. Little difference was observed between ECs from HHT1 and control iPSCs in co-culture. ECs from the patient harboring the 1083delAA and IVS 5+2 (T>C) mutation similar endothelial sprout formation as the controls (FIGS. 11A and 11B).
as §2

In experiment [3] the test system is iPSC-derived pericytes/mesenchymal cells. Put plainly: Contractile smooth muscle marker expression in iPSC-derived pericytes/mesenchymal cells. The note with it: stimulation with TGFb (FIG. 16). As to the method: Our differentiation system facilitates simultaneous derivation and expansion of pericytes and ECs from iPSC lines. […] Thus, a renewable source of pericytes/SMCs was created for co-culture with ECs that would in principle be able to simulate endothelial-pericyte interaction in humans.
iPSC-derived pericytes/mesenchymal cells were derived from the CD31− fraction emerging during the endothelial differentiation protocol. CD31− cells were plated on gelatin coated plates in EGM-2 media (Lonza). After 4 days medium was replaced by DMEM+10% FBS supplemented with TGFβ3 (2 ng/ml, Peprotech) and PDGF-BB (4 ng/ml, Peprotech). iPSC-derived pericytes were routinely maintained on gelatin-coated plates in DMEM+10% FBS. Cells were characterized for the expression of pericyte and mesenchymal cell-specific markers by flow cytometry and immunofluorescent staining as describe above.
ECs and pericytes were cultured as described above on gelatin coated coverslips. Cells were fixed with 4% PFA, permeabilized and stained with the following antibodies as described (Orlova et al., Manuscript in preparation): anti-Ve-Cadherin (1:200, CellSignaling), anti-vWF (1:200, Dako), anti-CD31 (1:200, Dako), anti-SM22a (1:200, Abcam), anti-SMA (1:400, Sigma), anti-CNN1 (1:200, Sigma).

The subject of another experiment is hPSCs. The experiment is described as follows: Monolayer endothelial differentiation of hPSCs in defined medium, flow cytometry at day 10. The note with it: additional Activin 25 ng/ml on days 0-3 (BVAC vs BVC); range of iPSC lines; data not shown. The source says: hiPSC lines were generated from Fib or BOECs using conditional lentiviral vectors containing the four transcription factors oct4, c-myc, Klf4 and Sox2, and characterized as described previously (Dambrot et al., 2013; Freund et al., 2008; Orlova et al., manuscript in preparation). hiPSCs and hESC (line HES-NL4; (van de Stolpe et al., 2005)) were routinely maintained on growth factor reduced MATRIGEL®-(BD, 354230) coated plates in mTeSR media (StemCell Technologies, 05850) and passaged mechanically. Differentiation was induced three days after passaging colonies by replacing mTeSR medium with the differentiation media based on BPEL (without PVA) (Ng et al., 2008) with timed addition of the following growth factors: 25 ng/ml ActivinA (Miltenyi, 130-095-547), 30 ng/ml BMP4 (Miltenyi, 130-095-549), VEGF165 (R&D Systems, 293-VE) and small molecule inhibitor CHIR99021 (Tocris, 4423). At day 3 and day 7 of differentiation, the media was refreshed with BPEL containing VEGF and 5 μM SB43152 (Tocris, 1614) only.
Cells were dissociated with TrypLE Select and washed once with the FACs buffer with the 10% FBS, followed by the single wash with the FACs buffer. […] In some experiment samples were analyzed with the MACSQuant VYB (Miltenyi). […]

Entries after “also recorded” stand apart in the source; their conditions may differ.

Turning to `C[C@H](NC(=O)Cc1cc(F)cc(F)c1)C(=O)N[C@H](C(=O)OC(C)(C)C)c1ccccc1` [DAPT, reference compound], the “number of tip cells” value in experiment [1] (2D co-culture system with DAPT, 46 without DAPT) was 64.
Regarding `c1ccc2c(-c3cnn4cc(-c5ccc(N6CCNCC6)cc5)cnc34)ccnc2c1` [LDN1931189, reference compound], the sprout formation entry in experiment [1] (LDN1931189, inhibition of ALK1/ALK2/ALK3 pathway, day 7) is on record as “no effect on sprout formation”.

B1: TRC105: anti-endoglin blocking antibody, in clinical trial as an anti-tumor therapy (antibody, chains of the INN, looked up, V domains shown)
VH: EVKLEESGGGLVQPGGSMKLSCAASGFTFSDAWMDWVRQSPEKGLEWVAEIRSKASNHATYYAESVKGRFTISRDDSKSSVYLQMNSLRAEDTGIYYCTRWRRFFDSWGQGTTLTVSS
VL: QIVLSQSPAILSASPGEKVTMTCRASSSVSYMHWYQQKPGSSPKPWIYATSNLASGVPVRFSGSGSGTSYSLTISRVEAEDAATYYCQQWSSNPLTFGAGTKLELK
In the case of B1, in experiment [1] (TRC105 120 μg/ml, day 7), the “formation of sprouts by ECs” value is given as “reduction in the formation of the sprouts; also recorded: significantly reduced sprouting”. In addition, the “surface area covered by ECs” value in experiment [1] (TRC105, co-culture assay) is on record as “significantly reduced”.

B2: TGFβ3: growth factor TGFβ3 (Peprotech), transforming growth factor β ligand (protein, UniProt P10600 301-412, looked up)
Transforming growth factor …: ALDTNYCFRNLEENCCVRPLYIDFRQDLGWKWVHEPKGYYANFCSGPCPYLRSADTTHSTVLGLYNTLNPEASASPCCVPQDLEPLTILYYVGRTPKVEQLSNMVVKSCKCS
modifications: Transforming growth factor beta-3
notes: growth factor TGFβ3 (Peprotech), transforming growth factor β ligand
For B2, the “formation of vascular/endothelial sprouts” value in experiment [1] (day 7) was “dramatic reduction in the formation of the vascular sprouts; also recorded: inhibits sprout formation in all lines”; in experiment [1] (day 7, listed as TGFβ), “inhibited endothelial network formation”. Moreover, the “formation of endothelial sprouts” value was “inhibits sprout formation in all lines” in experiment [2] and “inhibited formation of the endothelial sprouts; also recorded: inhibited endothelial network formation” in experiment [2] (listed as TGFβ). Besides, the “up-regulation of vSMC contractile markers” value in experiment [3] is given as “up-regulation of vSMC markers”.

B3: BMP9: BMP9 (R&D), ligand for signaling in ECs, circulating vascular quiescence factor (protein, UniProt Q9UK05 320-429, looked up)
Growth/differentiation factor …: SAGAGSHCQKTSLRVNFEDIGWDSWIIAPKEYEAYECKGGCFFPLADDVTPTKHAIVQTLVHLKFPTKVGKACCVPTKLSPISVLYKDDMGVPTLKYHYEGMSVAECGCR
With B3, the “formation of the sprouting network” value is given as “no effect at all” in experiment [1] (BMP9 1 ng/ml, day 7, control iPSC ECs, listed as BMP-9); “selective inhibitory effect in HHT1-iPSC-derived ECs only” in experiment [2]; “significant inhibition” in experiment [2] (listed as BMP-9).

B4: Activin: growth factor ActivinA (Miltenyi), 25 ng/ml in mesoderm induction medium (protein, UniProt P08476 311-426, looked up)
Inhibin beta A chain: GLECDGKVNICCKKQFFVSFKDIGWNDWIIAPSGYHANYCEGECPSHIAGTSGSSLSFHSTVINHYRMRGHSPFANLKSCCVPTKLRPMSMLYYDDGQNIIKKDIQNMIVEECGCS
modifications: Inhibin beta A chain
Consider B4, for which, in the experiment on hPSCs, the “robustness and reproducibility of differentiation” value is “more robust and reproducible differentiation”.
